Measurements published in US20030060605A1 (LA JOLLA INSTITUTE FOR ALLERGY AND IMMUNOLOGY, published 2003).
Substitutions are numbered along the chain they refer to.

T1: LTαTyr108Phe (UniProt P01374 35-205)
T1 construct: also called LTαY108F; LTα (Y108F)
T1 sequence (looked up): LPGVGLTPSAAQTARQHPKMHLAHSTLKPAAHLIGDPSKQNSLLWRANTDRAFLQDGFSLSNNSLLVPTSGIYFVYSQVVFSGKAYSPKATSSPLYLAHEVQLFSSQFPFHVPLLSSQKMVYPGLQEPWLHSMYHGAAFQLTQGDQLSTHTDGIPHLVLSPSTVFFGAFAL

T2: LTβ (33 kDa) and LTα (23-25 kDa) complex from detergent extracts of PMA activated II-23.D7 cells (human, UniProt P01374 35-205; Q06643 1-244)
T2 construct: Native complex, in NP40 extract; also called LTα1β2 complex; surface LTα1β2
T2 sequence (looked up) 1: T1 sequence (looked up) with F108Y
T2 sequence (looked up) 2: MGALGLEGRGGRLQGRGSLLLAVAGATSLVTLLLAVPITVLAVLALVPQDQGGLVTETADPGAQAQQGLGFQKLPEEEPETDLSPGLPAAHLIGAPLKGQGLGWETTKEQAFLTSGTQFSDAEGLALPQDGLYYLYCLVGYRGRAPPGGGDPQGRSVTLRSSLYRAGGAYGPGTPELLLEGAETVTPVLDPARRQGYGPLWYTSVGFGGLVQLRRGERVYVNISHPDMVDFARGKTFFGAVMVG

B1: TNFR60:Fc (Fc fusion, UniProt P19438 30-211, looked up)
chain: LVPHLGDREKRDSVCPQGKYIHPQNNSICCTKCHKGTYLYNDCPGPGQDTDCRECESGSFTASENHLRHCLSCSKCRKEMGQVEISSCTVDRDTVCGCRKNQYRHYWSENLFQCFNCSLCLNGTVHLSCQEKQNTVCTCHAGFFLRENECVSCSNCKKSLECTKLCLPQIENVKGTEDSGTT
notes: also called TNFR:Fc; TNFR1-Fc; not shown: Fc region of human IgG1
B2: HVEM:Fc fusion protein (extracellular region of HVEM, 1 to K184, fused to the Fc of human IgG1) (Fc fusion, UniProt Q92956 39-184, looked up)
chain: LPSCKEDEYPVGSECCPKCSPGYRVKEACGELTGTVCEPCPPGTYIAHLNGLSKCLQCQMCDPAMGLRASRNCSRTENAVCGCSPGHFCIVQDGDHCAACRAYATSSPGQRVQKGGTESQDTLCQNCPPGTFSPNGTLEECQHQTK
notes: range 1-184; Made in the baculovirus vector pVL1392; Residues 1-184 include the signal peptide; also called huHVEM:Fc; hu HVEM:Fc; not shown: Fc of human IgG1

Columns and labels:
[1] = target: soluble HSV gD-1 (glycoprotein D of HSV-1) (herpes simplex virus type 1, UniProt Q69091 26-331); assay: binding inhibition experiments, flow cytometry
[2] = target: gD-1 (Δ290-299t), mutant of soluble HSV gD-1 (herpes simplex virus type 1, UniProt Q69091 26-331); assay: binding inhibition experiments, flow cytometry
LTαTyr108Phe = target: T1, LTαTyr108Phe; assay: competition flow cytometry: HVEM:Fc pre-incubated with the ligand, then added to II-23.D7 cells activated with PMA and ionomycin, anti-huIgG-PE
[3] = target: T3, p30 (LIGHT), the 30 kDa cell surface HVEM ligand of activated II-23.D7 T hybridoma cells and human T cells (human, UniProt O43557 1-240); assay: flow cytometry, saturation binding on activated II-23.D7 cells; whole activated (PMA + ionomycin) II-23.D7 cells; apparent half-maximal binding by flow cytometry
T3 construct: whole, on cells; On the cell surface in flow cytometry; in NP40 detergent extracts in the precipitations
T3 sequence (O43557 whole entry): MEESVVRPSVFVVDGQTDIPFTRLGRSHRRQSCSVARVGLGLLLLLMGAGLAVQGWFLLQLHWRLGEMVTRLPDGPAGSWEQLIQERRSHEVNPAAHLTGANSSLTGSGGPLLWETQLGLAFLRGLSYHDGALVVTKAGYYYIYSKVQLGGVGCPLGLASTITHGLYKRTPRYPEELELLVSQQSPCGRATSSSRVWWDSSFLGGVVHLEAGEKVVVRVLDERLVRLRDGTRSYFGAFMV

[4] = target: T2, LTβ (33 kDa) and LTα (23-25 kDa) …; assay: flow cytometry, II-23.D7 cells activated with PMA alone, goat anti-human IgG-PE; target taken as the surface LTα1β2 of these cells [upper histogram]

| Binder | binding result [1] | binding result [2] | binding result (LTαTyr108Phe) | EC50 [3] | binding result [4] |
| --- | --- | --- | --- | --- | --- |
| B1 | no binding | no binding | – | – | – |
| B2 | – | – | no binding | 20 nM | no binding |
